Results from PMC8496864.

Columns and labels:
[1] = target: CwlDΔ25-His6 (soluble domain of C. difficile CwlD amidase, His-tagged) (Clostridioides difficile); experiment: SEC; Superdex 200 Increase 10/300 GL; 200 mM NaCl, 10 mM Tris HCl pH 7.5, 5% glycerol, 1 mM DTT; fractions on SDS-PAGE with Coomassie; complexes also run after 1 h at 4°C with fivefold excess ZnCl2 or 1 mM EDTA
[2] = target: FLAG-tagged CwlD_(R169D) (Clostridioides difficile); experiment: co-IP; lysates of C. difficile sporulating for 22 h; FLAG IP buffer (50 mM Tris pH 7.5, 150 mM NaCl) with 0.1% NP-40; anti-FLAG magnetic resin, 1 h at room temperature; eluted with FLAG peptide; GerS detected by anti-GerS blot
[3] = target: FLAG-tagged CwlD_(H49A) (Clostridioides difficile); experiment: as above
[4] = target: FLAG-tagged CwlD_(E199A) (Clostridioides difficile); experiment: as above
[5] = target: CwlDΔ25-His6 (soluble domain of C. difficile CwlD amidase, His-tagged) (Clostridioides difficile); experiment: pull-down; co-affinity purification: His-tagged CwlD and untagged GerS co-produced in E. coli, captured on Ni-NTA agarose (500 mM NaCl, Tris pH 7.5, 15 mM imidazole, 10% glycerol, 2 mM ß-mercaptoethanol), eluted with 200 mM imidazole, Coomassie staining
[6] = target: GerSΔ22 (soluble domain of C. difficile GerS lipoprotein, untagged) (Clostridioides difficile); experiment: crystal structure; SEC-purified CwlD:GerS complex; hanging drop at 18°C, 50 mM BisTris pH 7.5, PEG 3350 12–18%, 5% glycerol, 0.25 M ammonium nitrate; 2.4 Å
[7] = target: CwlD_(R169D)-His6 (Clostridioides difficile); experiment: pull-down; co-affinity purification: His-tagged CwlD and untagged GerS co-produced in E. coli, captured on Ni-NTA agarose (500 mM NaCl, Tris pH 7.5, 15 mM imidazole, 10% glycerol, 2 mM ß-mercaptoethanol), eluted with 200 mM imidazole, Coomassie staining
[8] = target: CwlD_(R169Q)-His6 (Clostridioides difficile); experiment: as above
[9] = target: CwlD_(H49A)-His6 (Clostridioides difficile); experiment: SEC; Superdex 200 Increase 10/300 GL; 200 mM NaCl, 10 mM Tris HCl pH 7.5, 5% glycerol, 1 mM DTT; fractions on SDS-PAGE with Coomassie; complexes also run after 1 h at 4°C with fivefold excess ZnCl2 or 1 mM EDTA
[10] = target: CwlD_(E65A)-His6 (Clostridioides difficile); experiment: as above
[11] = target: CwlD_(E199A)-His6 (Clostridioides difficile); experiment: as above
[12] = target: GerSΔ22-His6 (Clostridioides difficile); experiment: dynamic light scattering; DynaPro Protein Solutions DLS instrument; purified GerS, CwlD and SEC-purified CwlD:GerS complex
[13] = target: GerSΔ22-His6 (Clostridioides difficile); experiment: SEC; Superdex 200 Increase 10/300 GL; 200 mM NaCl, 10 mM Tris HCl pH 7.5, 5% glycerol, 1 mM DTT; fractions on SDS-PAGE with Coomassie; complexes also run after 1 h at 4°C with fivefold excess ZnCl2 or 1 mM EDTA

Q: How did the stoichiometry N [1] turn out when “CwlDΔ25-His6 (soluble domain of C. difficile CwlD amidase, His-tagged) (domain or fragment)” was run?
A: Its stoichiometry N is 2.

Q: What does the source list for “GerS, cleaved form (GerS-c), untagged, in sporulating C. difficile (natural protein)”?
A: fold reduction of GerS pulled down relative to wild-type FLAG-tagged CwlD [2]: 5 fold; fold reduction of GerS pulled down relative to wild-type FLAG-tagged CwlD [3]: 5 fold; decrease of GerS pulled down relative to wild-type FLAG-tagged CwlD [4]: 40%

Q: How did the reduction of GerS co-purification relative to the wild-type complex [5] turn out when “GerS_(D106A), untagged (domain or fragment)” was run?
A: The reduction of GerS co-purification relative to the wild-type complex was 90%.

Q: “GerS_(D106R), untagged (domain or fragment)” was tested. Which reduction of GerS co-purification relative to the wild-type complex [5] did it give?
A: Its reduction of GerS co-purification relative to the wild-type complex is 90%.

Q: How did the stoichiometry N [6] turn out when “GerSΔ22 (soluble domain of C. difficile GerS lipoprotein, untagged) (domain or fragment)” was run?
A: The stoichiometry N was 2.

Q: What about the reduction of GerS co-purification relative to the wild-type complex [7] of the same substance?
A: Its reduction of GerS co-purification relative to the wild-type complex is 90%.

Q: And the reduction of GerS co-purification relative to the wild-type complex [8]?
A: Its reduction of GerS co-purification relative to the wild-type complex is 90%.

Q: And the stoichiometry N [1]?
A: The stoichiometry N was 1.

Q: What about the stoichiometry N [9] of the same substance?
A: Its stoichiometry N is 1.

Q: What about the stoichiometry N [10] of the same substance?
A: The stoichiometry N was 1.

Q: And the stoichiometry N [11]?
A: Its stoichiometry N is 1.

Q: Which stoichiometry N [12] does the source give for GerSΔ22-His6 (domain or fragment) here?
A: The stoichiometry N was 2.

Q: What about the stoichiometry N [13] of the same substance?
A: The stoichiometry N was 2.
